Results as given in doi:10.1101/2022.12.21.521443 (2022).

Molecular target: S. cerevisiae Pbs2 target peptide (S. cerevisiae, UniProt P08018)
Sequence (P08018 whole entry): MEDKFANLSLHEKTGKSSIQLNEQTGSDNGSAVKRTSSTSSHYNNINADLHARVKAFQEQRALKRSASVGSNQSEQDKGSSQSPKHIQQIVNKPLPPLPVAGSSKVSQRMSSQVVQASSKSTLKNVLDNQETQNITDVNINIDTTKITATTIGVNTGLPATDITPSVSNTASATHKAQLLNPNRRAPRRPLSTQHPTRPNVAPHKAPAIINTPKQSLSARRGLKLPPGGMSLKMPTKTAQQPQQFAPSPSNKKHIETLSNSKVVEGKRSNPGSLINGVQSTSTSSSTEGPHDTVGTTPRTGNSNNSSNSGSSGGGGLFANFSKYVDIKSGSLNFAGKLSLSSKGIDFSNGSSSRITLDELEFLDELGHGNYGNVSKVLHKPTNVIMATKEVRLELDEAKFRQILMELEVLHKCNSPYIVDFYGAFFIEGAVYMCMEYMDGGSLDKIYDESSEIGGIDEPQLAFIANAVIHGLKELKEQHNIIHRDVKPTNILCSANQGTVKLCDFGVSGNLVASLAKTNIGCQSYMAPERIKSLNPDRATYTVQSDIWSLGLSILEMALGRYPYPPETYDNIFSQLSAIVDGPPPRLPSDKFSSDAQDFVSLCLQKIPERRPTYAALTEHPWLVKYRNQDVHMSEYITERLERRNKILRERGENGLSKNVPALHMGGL

Kd: 3 µM
B1: wild-type S. cerevisiae Sho1 SH3 domain (domain or fragment)
chain: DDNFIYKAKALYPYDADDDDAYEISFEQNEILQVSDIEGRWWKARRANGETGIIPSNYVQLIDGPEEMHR
